Target: GST-BS69_(50-401) FW point mutant (F293A, W294A) (human) (UniProt Q15326)
Assay: MST

Chain of GST-BS69_(50-401) FW point mutant (F293A, W294A) (human) (Q15326 50-401 F293A/W294A): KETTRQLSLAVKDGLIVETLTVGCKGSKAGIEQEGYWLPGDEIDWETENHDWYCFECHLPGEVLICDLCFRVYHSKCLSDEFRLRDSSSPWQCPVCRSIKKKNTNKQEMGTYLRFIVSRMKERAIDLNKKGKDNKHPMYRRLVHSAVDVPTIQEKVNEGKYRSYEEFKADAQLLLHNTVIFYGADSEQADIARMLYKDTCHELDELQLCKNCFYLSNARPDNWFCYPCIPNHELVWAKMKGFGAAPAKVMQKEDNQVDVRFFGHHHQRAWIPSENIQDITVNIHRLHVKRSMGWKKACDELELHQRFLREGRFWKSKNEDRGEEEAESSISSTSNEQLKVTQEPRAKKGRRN

H3.3K36me3 peptide
Kd: 277 µM

Source: PMC4363072
